Reference: patent US20190076400A1 (PROTAGONIST THERAPEUTICS, published 2019)
Square brackets hold non-standard residues; d marks the D form. Primed or numbered codes have the meaning given here. Phe(2,6-Me2,4-CONH2) = Cc1cc(C(N)=O)cc(C)c1C[C@H](N)C(=O)O; Phe(3,4-(OMe)2) = COc1ccc(C[C@H](N)C(=O)O)cc1OC; Phe(3,4-Cl2) = N[C@@H](Cc1ccc(Cl)c(Cl)c1)C(=O)O; Trp(5-OH) = N[C@@H](Cc1c[nH]c2ccc(O)cc12)C(=O)O; Phe(4-COOH) = N[C@@H](Cc1ccc(C(=O)O)cc1)C(=O)O; Phe(4-tBu) = CC(C)(C)c1ccc(C[C@H](N)C(=O)O)cc1; Dip = N[C@H](C(=O)O)C(c1ccccc1)c1ccccc1; Phe(4-F) = N[C@@H](Cc1ccc(F)cc1)C(=O)O; Dmt = Cc1cc(O)cc(C)c1C[C@H](N)C(=O)O; NMeR = CN[C@@H](CCCNC(=N)N)C(=O)O; dNMeF = CN[C@H](Cc1ccccc1)C(=O)O; hPhe = N[C@@H](CCc1ccccc1)C(=O)O; αMeF = C[C@](N)(Cc1ccccc1)C(=O)O; Tic = O=C(O)[C@@H]1Cc2ccccc2CN1; β3hF = N[C@H](CC(=O)O)Cc1ccccc1; N(octyl)Gly = CCCCCCCCNCC(=O)O; Tic(7-OH)′ = not defined here; Nle = CCCC[C@H](N)C(=O)O; THP = not defined here; Aib = CC(C)(N)C(=O)O; βAla = NCCC(=O)O; Sar = CNCC(=O)O

B1: H-DMT-r-G-DPA-NH2 (peptide)
peptide: H-[Dmt][dR]G[Dip]-NH2
SMILES: Cc1cc(O)cc(C)c1C[C@H](N)C(=O)N[C@H](CCCNC(=N)N)C(=O)NCC(=O)N[C@H](C(N)=O)C(c1ccccc1)c1ccccc1
B2: H-DMT-r-F-V-NH2 (peptide)
peptide: H-[Dmt][dR]FV-NH2
SMILES: Cc1cc(O)cc(C)c1C[C@H](N)C(=O)N[C@H](CCCNC(=N)N)C(=O)N[C@@H](Cc1ccccc1)C(=O)N[C@H](C(N)=O)C(C)C
B3: H-Phe(DMC)-(D)Asp-G-bhF-Sar-NH2 (peptide)
peptide: H-[Phe(2,6-Me2,4-CONH2)][dD]G[β3hF][Sar]-NH2
SMILES: Cc1cc(C(N)=O)cc(C)c1C[C@H](N)C(=O)N[C@H](CC(=O)O)C(=O)NCC(=O)N[C@H](CC(=O)N(C)CC(N)=O)Cc1ccccc1
B4: H-DMT-r-F-(D)N(Me)Phe-NH2 (peptide)
peptide: H-[Dmt][dR]F[dNMeF]-NH2
SMILES: Cc1cc(O)cc(C)c1C[C@H](N)C(=O)N[C@H](CCCNC(=N)N)C(=O)N[C@@H](Cc1ccccc1)C(=O)N(C)[C@H](Cc1ccccc1)C(N)=O
B5: H-DMT-r-F-Phe(3,4-diOMe)-NH2 (peptide)
peptide: H-[Dmt][dR]F[Phe(3,4-(OMe)2)]-NH2
SMILES: COc1ccc(C[C@H](NC(=O)[C@H](Cc2ccccc2)NC(=O)[C@@H](CCCNC(=N)N)NC(=O)[C@@H](N)Cc2c(C)cc(O)cc2C)C(N)=O)cc1OC
B6: H-DMT-r-DPA-Sar-NH2 (Seq. ID 26) (peptide)
peptide: H-[Dmt][dR][Dip][Sar]-NH2
SMILES: Cc1cc(O)cc(C)c1C[C@H](N)C(=O)N[C@H](CCCNC(=N)N)C(=O)N[C@H](C(=O)N(C)CC(N)=O)C(c1ccccc1)c1ccccc1
B7: H-Phe(DMC)-a-G-bhF-Gly-NH2 (peptide)
peptide: H-[Phe(2,6-Me2,4-CONH2)][dA]G[β3hF]G-NH2
SMILES: Cc1cc(C(N)=O)cc(C)c1C[C@H](N)C(=O)N[C@H](C)C(=O)NCC(=O)N[C@H](CC(=O)NCC(N)=O)Cc1ccccc1
B8: H-DMT-r-F-Octyl Gly-NH2 (peptide)
peptide: H-[Dmt][dR]F[N(octyl)Gly]-NH2
SMILES: CCCCCCCCN(CC(N)=O)C(=O)[C@H](Cc1ccccc1)NC(=O)[C@@H](CCCNC(=N)N)NC(=O)[C@@H](N)Cc1c(C)cc(O)cc1C
B9: H-DMT-r-F-alpha-MePhe-NH2 (peptide)
peptide: H-[Dmt][dR]F[αMeF]-NH2
SMILES: Cc1cc(O)cc(C)c1C[C@H](N)C(=O)N[C@H](CCCNC(=N)N)C(=O)N[C@@H](Cc1ccccc1)C(=O)N[C@@](C)(Cc1ccccc1)C(N)=O
B10: H-DMT-r-4-tBu-Phe-Sar-NH2 (peptide)
peptide: H-[Dmt][dR][Phe(4-tBu)][Sar]-NH2
SMILES: Cc1cc(O)cc(C)c1C[C@H](N)C(=O)N[C@H](CCCNC(=N)N)C(=O)N[C@@H](Cc1ccc(C(C)(C)C)cc1)C(=O)N(C)CC(N)=O
B11: H-DMT-r-F-L-NH2 (peptide)
peptide: H-[Dmt][dR]FL-NH2
SMILES: Cc1cc(O)cc(C)c1C[C@H](N)C(=O)N[C@H](CCCNC(=N)N)C(=O)N[C@@H](Cc1ccccc1)C(=O)N[C@@H](CC(C)C)C(N)=O
B12: H-DMT-r-G-W-NH2 (peptide)
peptide: H-[Dmt][dR]GW-NH2
SMILES: Cc1cc(O)cc(C)c1C[C@H](N)C(=O)N[C@H](CCCNC(=N)N)C(=O)NCC(=O)N[C@@H](Cc1c[nH]c2ccccc12)C(N)=O
B13: H-Phe(DMC)-N(Me)Arg-G-bhF-Sar-NH2 (peptide)
peptide: H-[Phe(2,6-Me2,4-CONH2)][NMeR]G[β3hF][Sar]-NH2
SMILES: Cc1cc(C(N)=O)cc(C)c1C[C@H](N)C(=O)N(C)[C@@H](CCCNC(=N)N)C(=O)NCC(=O)N[C@H](CC(=O)N(C)CC(N)=O)Cc1ccccc1
B14: H-DMT-r-F-HomoPhe-NH2 (peptide)
peptide: H-[Dmt][dR]F[hPhe]-NH2
SMILES: Cc1cc(O)cc(C)c1C[C@H](N)C(=O)N[C@H](CCCNC(=N)N)C(=O)N[C@@H](Cc1ccccc1)C(=O)N[C@@H](CCc1ccccc1)C(N)=O
B15: H-DMT-r-Phe(3,4-diCl)-Sar-NH2 (peptide)
peptide: H-[Dmt][dR][Phe(3,4-Cl2)][Sar]-NH2
SMILES: Cc1cc(O)cc(C)c1C[C@H](N)C(=O)N[C@H](CCCNC(=N)N)C(=O)N[C@@H](Cc1ccc(Cl)c(Cl)c1)C(=O)N(C)CC(N)=O
B16: H-Phe(DMC)-Aib-G-bhF-Sar-NH2 (peptide)
peptide: H-[Phe(2,6-Me2,4-CONH2)][Aib]G[β3hF][Sar]-NH2
SMILES: Cc1cc(C(N)=O)cc(C)c1C[C@H](N)C(=O)NC(C)(C)C(=O)NCC(=O)N[C@H](CC(=O)N(C)CC(N)=O)Cc1ccccc1
B17: H-DMT-r-Phe(3,4-diOMe)-Sar-NH2 (peptide)
peptide: H-[Dmt][dR][Phe(3,4-(OMe)2)][Sar]-NH2
SMILES: COc1ccc(C[C@H](NC(=O)[C@@H](CCCNC(=N)N)NC(=O)[C@@H](N)Cc2c(C)cc(O)cc2C)C(=O)N(C)CC(N)=O)cc1OC
B18: H-DMT-a-Val-bhF-Sar-NH2 (peptide)
peptide: H-[Dmt][dA]V[β3hF][Sar]-NH2
SMILES: Cc1cc(O)cc(C)c1C[C@H](N)C(=O)N[C@H](C)C(=O)N[C@H](C(=O)N[C@H](CC(=O)N(C)CC(N)=O)Cc1ccccc1)C(C)C
B19: H-DMT-r-Sar-W-NH2 (peptide)
peptide: H-[Dmt][dR][Sar]W-NH2
SMILES: Cc1cc(O)cc(C)c1C[C@H](N)C(=O)N[C@H](CCCNC(=N)N)C(=O)N(C)CC(=O)N[C@@H](Cc1c[nH]c2ccccc12)C(N)=O
B20: H-DMT-r-F-Nle-NH2 (peptide)
peptide: H-[Dmt][dR]F[Nle]-NH2
SMILES: CCCC[C@H](NC(=O)[C@H](Cc1ccccc1)NC(=O)[C@@H](CCCNC(=N)N)NC(=O)[C@@H](N)Cc1c(C)cc(O)cc1C)C(N)=O
B21: H-DMT-r-F-DPA-NH2 (peptide)
peptide: H-[Dmt][dR]F[Dip]-NH2
SMILES: Cc1cc(O)cc(C)c1C[C@H](N)C(=O)N[C@H](CCCNC(=N)N)C(=O)N[C@@H](Cc1ccccc1)C(=O)N[C@H](C(N)=O)C(c1ccccc1)c1ccccc1
B22: H-DMT-r-Tic-Sar-NH2 (peptide)
peptide: H-[Dmt][dR][Tic][Sar]-NH2
SMILES: Cc1cc(O)cc(C)c1C[C@H](N)C(=O)N[C@H](CCCNC(=N)N)C(=O)N1Cc2ccccc2C[C@H]1C(=O)N(C)CC(N)=O
B23: H-DMT-r-DPA-Sar-NH2 (Seq. ID 32) (peptide)
peptide: H-[Dmt][dR][Dip][Sar]-NH2
SMILES: Cc1cc(O)cc(C)c1C[C@H](N)C(=O)N[C@H](CCCNC(=N)N)C(=O)N[C@H](C(=O)N(C)CC(N)=O)C(c1ccccc1)c1ccccc1
B24: H-DMT-N(Me)Arg-G-bhF-Sar-NH2 (peptide)
peptide: H-[Dmt][NMeR]G[β3hF][Sar]-NH2
SMILES: Cc1cc(O)cc(C)c1C[C@H](N)C(=O)N(C)[C@@H](CCCNC(=N)N)C(=O)NCC(=O)N[C@H](CC(=O)N(C)CC(N)=O)Cc1ccccc1
B25: H-DMT-r-W-Nle-NH2 (peptide)
peptide: H-[Dmt][dR]W[Nle]-NH2
SMILES: CCCC[C@H](NC(=O)[C@H](Cc1c[nH]c2ccccc12)NC(=O)[C@@H](CCCNC(=N)N)NC(=O)[C@@H](N)Cc1c(C)cc(O)cc1C)C(N)=O

Biological target: δ-opioid receptor (DOR), Human-ORPD1 (human, UniProt P41143 1-372)
Assay: cell-based or functional assay

δ-opioid receptor (DOR), Human-ORPD1, sequence (P41143 whole entry, stated change not applied): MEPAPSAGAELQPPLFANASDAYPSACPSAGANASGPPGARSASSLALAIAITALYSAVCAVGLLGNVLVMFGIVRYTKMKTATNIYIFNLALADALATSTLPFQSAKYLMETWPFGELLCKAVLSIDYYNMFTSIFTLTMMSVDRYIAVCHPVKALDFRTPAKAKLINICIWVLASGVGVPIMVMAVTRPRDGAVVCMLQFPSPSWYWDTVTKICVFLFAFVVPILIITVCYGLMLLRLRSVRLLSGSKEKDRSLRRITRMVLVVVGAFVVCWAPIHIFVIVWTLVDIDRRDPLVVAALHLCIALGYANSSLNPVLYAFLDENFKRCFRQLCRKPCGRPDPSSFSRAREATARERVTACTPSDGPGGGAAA

H-[Phe(4-tetrazolyl)][dA]G[β3hF][Sar]-NH2 [H-Phe(4-tetrazolyl)-a-G-bhF-Sar-NH2] and B1 cannot be ordered by “DOR EC50” value: at most 200 nM for the first, over 200 nM for the second.

H-[Dmt][dA][THP][β3hF][Sar]-NH2 (reading uncertain; also: printed as H-DMT-a-THP-bhF-Sar-NH2) [H-DMT-a-THP-bhF-Sar-NH2] and B2 cannot be ordered by “DOR EC50” value: at most 200 nM for the first, at most 10 nM for the second.

B3 and B4 cannot be ordered by “DOR EC50” value: at most 1 nM for the first, at most 50 nM for the second.

H-[Dmt][dA][βAla][β3hF][Sar]-NH2 [H-DMT-a-bAla-bhF-Sar-NH2] and H-[Trp(5-OH)][dA]G[β3hF][Sar]-NH2 [H-Trp(5-OH)-a-G-bhF-Sar-NH2] cannot be ordered by “DOR EC50” value: at most 200 nM for the first, at most 200 nM for the second.

Compared with B5, B6 is higher in “DOR EC50” value: at most 10 nM for the first, over 200 nM for the second.

B7 and B8 cannot be ordered by “DOR EC50” value: at most 10 nM for the first, at most 200 nM for the second.

Compared with B9, B10 is higher in “DOR EC50” value: at most 10 nM for the first, over 200 nM for the second.

B11 and B12 cannot be ordered by “DOR EC50” value: at most 50 nM for the first, at most 50 nM for the second.

H-[Phe(3-OH)][dA]G[β3hF][Sar]-NH2 [H-meta-Tyr-a-G-bhF-Sar-NH2] and B13 cannot be ordered by “DOR EC50” value: over 200 nM for the first, at most 200 nM for the second.

B14 and B15 cannot be ordered by “DOR EC50” value: at most 10 nM for the first, at most 50 nM for the second.

H-[Dmt][dR]F[Phe(4-F)]-NH2 [H-DMT-r-F-Phe(4-F)-NH2] and B16 cannot be ordered by “DOR EC50” value: at most 50 nM for the first, at most 50 nM for the second.

H-[Phe(2,6-Me2,4-CONH2)]AG[β3hF][Sar]-OH [H-Phe(DMC)-A-G-bhF-Sar-OH] and B17 cannot be ordered by “DOR EC50” value: at most 200 nM for the first, over 200 nM for the second.

H-[Phe(4-NHCOCH3)][dA]G[β3hF][Sar]-NH2 [H-Phe(4-NHCOCH3)-a-G-bhF-Sar-NH2] and H-[Phe(4-COOH)][dA]G[β3hF][Sar]-NH2 [H-Phe(4-COOH)-a-G-bhF-Sar-NH2] cannot be ordered by “DOR EC50” value: at most 200 nM for the first, at most 200 nM for the second.

B18 and B19 cannot be ordered by “DOR EC50” value: at most 200 nM for the first, over 200 nM for the second.

H-[Phe(2,6-Me2,4-CONH2)][dA]G[Tic][Sar]-NH2 [H-Phe(DMC)-a-G-Tic-Sar-NH2] and B20 cannot be ordered by “DOR EC50” value: at most 50 nM for the first, at most 50 nM for the second.

First: B21
Second: B22
The “DOR EC50” value of the first is lower: at most 50 nM for the first, over 200 nM for the second.

B23 and B24 cannot be ordered by “DOR EC50” value: over 200 nM for the first, at most 200 nM for the second.

H-[Dmt][dR][BIP][Sar]-NH2 [H-DMT-r-BIP-Sar-NH2] and B25 cannot be ordered by “DOR EC50” value: at most 1 nM for the first, at most 50 nM for the second.

With H-[Tic(7-OH)′][dA]G[β3hF][Sar]-NH2 [H-Tic(7-OH)-a-G-bhF-Sar-NH2] the “DOR EC50” value was at most 50 nM.
